Measurements as given in the supplement of paper PMC12783771.
± gives the standard deviation of the averaged measurements.

B1: library; numbered along this chain (parent)
chain: MNIQIGELAKRTACPVVTIRFYEQEGLLPPPGRSRGNFRLYGEEHVERLQFIRHCRSLDMPLSDVRTLLSYRKRPDQDCGEVNMLLDEHIRQVESRIGALLELKHHLVELREACSGARPAQSCGILQGLSDCVCDTRGTTAHPSD

Key:
[1] = variants of: B1; assay: sfGFP reporter fluorescence (15 h) (µM FITC); higher = higher leak; settings: library round: Round 0; ligand: none
Procedure, shortened: (§1)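 PCR-made linear PbrR templates (Echo-normalized to 5 nM) were expressed in BL21 Star (DE3) extract (PANOx-SP) with pPbrR-sfGFP reporter plasmid and 30 μg/mL GamS. Reactions were 1 μL, Echo-assembled, with 1 µM lead chloride, 30 µM zinc acetate or no metal, incubated 15 hr at 30 °C. Endpoint sfGFP fluorescence (485/528 nm, Synergy Neo2) was converted to µM FITC via standard curves in 50 mM sodium borate pH 8.5. Up to three biological replicates.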

[2] = variants of: B1; assay: sfGFP reporter fluorescence (15 h) (µM FITC); higher = stronger transcriptional activation; settings: library round: Round 0
Procedure, shortened: as §1

Variant	sfGFP reporter fluorescence [1]	sfGFP reporter fluorescence ([2]; ligand: 1 µM Pb)	sfGFP reporter fluorescence ([2]; ligand: 30 µM Zn)
M60L D64K K104V L107C	3.73 ± 0.15	4.15 ± 0.39	3.44 ± 0.57
S144A	0.0586 ± 0.0036	0.0588 ± 0.0023	0.493 ± 0.16
M60L P61N D64K K104V	0.366 ± 0.0044	1.11 ± 0.035	3.03 ± 0.15
R39L	0.0581 ± 0.0013	0.05901 ± 0.00052	0.055 ± 0.0036
R39N	0.06102 ± 0.00026	0.0597 ± 0.0015	0.0605
P143A	0.0696 ± 0.0015	0.0806 ± 0.0026	0.4 ± 0.12
P143I	0.05534 ± 0.00052	0.0768 ± 0.0023	0.801 ± 0.12
P143K	0.0581 ± 0.00078	0.07293 ± 0.00052	0.889 ± 0.15
P143R	0.05864 ± 0.00052	0.0806 ± 0.0052	0.983 ± 0.14
P143W	0.0588 ± 0.0029	0.0861 ± 0.0026	0.751 ± 0.11
P143E	0.0563 ± 0.00078	0.0696 ± 0.0026	0.635 ± 0.04
Y41H	0.0599 ± 0.0029	0.0618 ± 0.0023	0.0678 ± 0.0026
Y41P	0.0583 ± 0.001	0.0597 ± 0.001	0.0601 ± 0.0026
M84A	0.0618 ± 0.0029	0.0687 ± 0.0029	0.807 ± 0.02
K104V L107A	0.166 ± 0.0088	0.817 ± 0.042	2.18 ± 0.12
D135S	0.06011 ± 0.00052	0.08723 ± 0.00052	0.988 ± 0.095
D135W	0.0737 ± 0.0036	0.146 ± 0.012	1.83 ± 0.17
C134E	0.0608 ± 0.001	0.0651 ± 0.0034	0.929 ± 0.095
C134S	0.06597 ± 0.00052	0.0814 ± 0.0036	1.22 ± 0.1
C134F	0.081 ± 0.001	0.202 ± 0.01	1.32 ± 0.51
C134N	0.06505 ± 0.00026	0.081 ± 0.0031	1.39 ± 0.12
C134Y	0.072 ± 0.0034	0.154 ± 0.012	1.49 ± 0.19
M60L D64K K104V G128I	2.23 ± 0.091	3.3 ± 0.69	4.17 ± 0.28

Variant	sfGFP reporter fluorescence [1]	sfGFP reporter fluorescence ([2]; ligand: 1 µM Pb)	sfGFP reporter fluorescence ([2]; ligand: 30 µM Zn)
R33W	0.0636 ± 0.00078	0.0629 ± 0.0039	0.0718 ± 0.0021
M60L P61N L107C	1.39 ± 0.39	2.42 ± 0.21	5.07 ± 0.26
N2A	0.0517 ± 0.001	0.0614 ± 0.0065	0.801 ± 0.036
D78A	0.0713 ± 0.0065	0.0689 ± 0.0021	0.1 ± 0.0026
P31A	0.05736 ± 0.00026	0.0607 ± 0.0044	0.485 ± 0.04
V82R	0.0605 ± 0.0015	0.05937 ± 0.00052	0.0568 ± 0.001
V82W	0.0592 ± 0.0013	0.05827 ± 0.00052	0.0555 ± 0.00078
V82A	0.06047 ± 0.00052	0.057 ± 0.0013	0.0786 ± 0.0039
V133A	0.06341 ± 0.00052	0.0746 ± 0.007	0.769 ± 0.021
L110T	0.05736 ± 0.00026	0.0601 ± 0.001	0.158 ± 0.0029
L110K	0.05772 ± 0.00026	0.05864 ± 0.00052	0.0792 ± 0.0021
L110H	0.0638 ± 0.0021	0.081 ± 0.0042	2.52 ± 0.29
L110C	0.05754 ± 0.00052	0.0577 ± 0.00078	0.0766 ± 0.0042
L110G	0.05498 ± 0.00052	0.0548 ± 0.00078	0.0531 ± 0.0031
L110R	0.0579 ± 0.0015	0.0596 ± 0.00078	0.06615 ± 0.00026
L110S	0.05626 ± 0.00026	0.05772 ± 0.00026	0.0614 ± 0.0018
L27E	0.0603 ± 0.0013	0.0616 ± 0.0015	0.0577 ± 0.00078
L27V	0.0625 ± 0.00078	0.0717 ± 0.00078	0.349 ± 0.0044
L27A	0.0632 ± 0.00078	0.05827 ± 0.00052	0.0733
L27W	0.0616 ± 0.0036	0.0623	0.0638
V65A	0.0629 ± 0.0013	0.0678 ± 0.0052	0.153 ± 0.036
D64K K104V L107C G128I	2.19 ± 0.12	4.16 ± 0.23	3.35 ± 0.64
R20I	0.0585 ± 0.00078	0.06285 ± 0.00026	0.142 ± 0.0057

Variant	sfGFP reporter fluorescence [1]	sfGFP reporter fluorescence ([2]; ligand: 1 µM Pb)	sfGFP reporter fluorescence ([2]; ligand: 30 µM Zn)
R20A	0.05772 ± 0.00026	0.0548 ± 0.0018	0.0572 ± 0.001
R20W	0.0625 ± 0.0018	0.06157 ± 0.00052	0.063 ± 0.0015
R20Q	0.06212 ± 0.00026	0.0607 ± 0.00078	0.074 ± 0.0031
R20T	0.0625 ± 0.0018	0.0612 ± 0.0021	0.06102 ± 0.00026
R20E	0.0603 ± 0.0023	0.0616 ± 0.0015	0.06175 ± 0.00026
C79E	0.0588 ± 0.00078	0.0596 ± 0.00078	0.0548 ± 0.00078
C79P	0.057 ± 0.00078	0.05772 ± 0.00026	0.05351 ± 0.00052
M60W	0.135 ± 0.0096	0.384 ± 0.026	0.926 ± 0.01
M60S	0.0601	0.0608 ± 0.001	0.0592 ± 0.00078
M60G	0.0561 ± 0.0015	0.05772 ± 0.00026	0.0588 ± 0.0013
M60R	0.0614 ± 0.0034	0.0612 ± 0.001	0.0619 ± 0.0015
Y22M	0.0638 ± 0.001	0.0612 ± 0.0031	0.064 ± 0.0013
Y22S	0.0636 ± 0.0013	0.06084 ± 0.00052	0.0619 ± 0.001
Y22L	0.0614 ± 0.00078	0.0597 ± 0.0015	0.07183 ± 0.00052
C123L	0.05589 ± 0.00026	0.0566 ± 0.0018	0.0542 ± 0.0021
C123I	0.05479 ± 0.00026	0.0553 ± 0.001	0.0517 ± 0.0021
C123Q	0.0585 ± 0.00078	0.05809 ± 0.00026	0.0546 ± 0.0015
C123R	0.0599 ± 0.0023	0.061 ± 0.00078	0.0574 ± 0.0044
C123E	0.0583 ± 0.001	0.0588 ± 0.00078	0.0557 ± 0.001
C123S	0.0575 ± 0.0021	0.0575 ± 0.001	0.0552 ± 0.0018
D131F	0.0596 ± 0.0013	0.0821 ± 0.0057	0.723 ± 0.048
D131Y	0.05919 ± 0.00026	0.0815 ± 0.0029	0.806 ± 0.01
P61N D64K K104V G128M	0.739 ± 0.021	1.592 ± 0.0036	3.375 ± 0.019

Variant	sfGFP reporter fluorescence [1]	sfGFP reporter fluorescence ([2]; ligand: 1 µM Pb)	sfGFP reporter fluorescence ([2]; ligand: 30 µM Zn)
V108P	0.0572 ± 0.0015	0.06011 ± 0.00052	0.0621 ± 0.0018
V108E	0.0579 ± 0.001	0.06652 ± 0.00026	0.62 ± 0.11
V108R	0.059	0.0788 ± 0.0021	0.8752 ± 0.0047
P61N D64K L107C	2.69 ± 0.12	3.57 ± 0.046	3.69 ± 0.12
E43W	0.061 ± 0.0013	0.0995 ± 0.021	1.36 ± 0.2
E43L	0.05113 ± 0.00026	0.0713 ± 0.007	1.01 ± 0.038
E43N	0.0577 ± 0.006	0.0828 ± 0.0036	1.21 ± 0.02
I125W	0.0588 ± 0.0018	0.0596 ± 0.0013	0.0564 ± 0.0026
I125R	0.0608 ± 0.0026	0.0603 ± 0.0013	0.0575 ± 0.0021
E94L	0.0579 ± 0.0021	0.0698 ± 0.0075	0.583 ± 0.006
E94S	0.0674 ± 0.0036	0.132 ± 0.0031	1.51 ± 0.013
E94W	0.0577 ± 0.0039	0.05516 ± 0.00026	0.143 ± 0.0054
E94N	0.0607 ± 0.0013	0.0755 ± 0.0047	0.659 ± 0.026
E94P	0.0535 ± 0.0026	0.0533 ± 0.0023	0.05571 ± 0.00052
R96A	0.0564	0.07495 ± 0.00026	0.294 ± 0.0083
D64K K104V G128M	1.36 ± 0.059	2.78 ± 0.079	4.45 ± 0.11
G128H	0.0608 ± 0.0021	0.0848 ± 0.0034	0.25 ± 0.012
G128I	0.066 ± 0.0021	0.183 ± 0.015	1.68 ± 0.19
G128C	0.0629 ± 0.0018	0.0964 ± 0.0036	0.16 ± 0.008
G128N	0.0614 ± 0.0023	0.0704 ± 0.0042	0.875 ± 0.093
